Where “and” joins values, the source holds several entries; their conditions need not be identical. Identical values can stand only once. Entries after “also recorded” stand apart in the source; their conditions may differ.
T1: FGFR3c ectodomain (Homo sapiens, UniProt P22607)
T1 sequence (P22607 23-375 limits assumed): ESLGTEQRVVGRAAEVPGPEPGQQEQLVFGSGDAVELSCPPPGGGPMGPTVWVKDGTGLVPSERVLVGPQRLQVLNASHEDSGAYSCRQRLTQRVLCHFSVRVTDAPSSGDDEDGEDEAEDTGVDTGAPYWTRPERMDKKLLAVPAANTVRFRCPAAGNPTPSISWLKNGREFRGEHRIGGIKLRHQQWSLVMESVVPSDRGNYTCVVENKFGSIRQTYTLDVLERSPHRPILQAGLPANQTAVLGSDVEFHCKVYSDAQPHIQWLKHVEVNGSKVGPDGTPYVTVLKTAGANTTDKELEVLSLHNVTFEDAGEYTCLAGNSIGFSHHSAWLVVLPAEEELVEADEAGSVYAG

B1: FGF1^ΔHBS: FGF1 mutant carrying the K127D/K128Q/K133V triple mutation in its HS-binding region; reduced heparin-binding affinity (protein)
chain: MAEGEITTFTALTEKFNLPPGNYKKPKLLYCSNGGHFLRILPDGTVDGTRDRSDQHIQLQLSAESVGEVYIKSTETGQYLAMDTDGLLYGSQTPNEECLFLERLEENHYNTYISKKHAEKNWFVGLDQNGSCVRGPRTHYGQKAILFLPLPVSSD

Tests used:
[1] = target: T1, FGFR3c ectodomain; test: ITC of FGF binding to FGFR3c ectodomain; details: for Kd: read-out: affinity for FGFR3c ectodomain
[2] = system: in vivo rat model of myocardial infarction; test: In vivo rat ischemia-reperfusion model, infarct size (TTC); parameters: species or system Sprague Dawley rats; details: for effect on infarct size / cardioprotection (in words): FGF given at reperfusion with heparin co-therapy; for effect on infarct size (in words): given at reperfusion, no heparin co-therapy; for reduction in infarct size compared to saline/vehicle control: given i.v. at reperfusion alone (FGF 10 μg/kg; heparin 12 U/kg/hr)
Procedure: CVR-2016-799R1 signaling and the other two sets were to evaluate the pharmacokinetic properties of native FGF1 and modified FGF1 (FGF1^ΔHBS). The first set of experiments was for the ischemia/reperfusion study in which animals were divided into six groups as follows: (1) saline group: saline treatment given intravenously for 10 minutes immediately upon reperfusion, (2) heparin group: heparin, 60 U/kg intravenous (i.v.) bolus, given immediately at reperfusion+12 U/kg/hr i.v. infusion for 120 minutes of reperfusion, (3) FGF1 group: FGF1, 10 μg/kg i.v. infusion, given for 10 minutes immediately at reperfusion, (4) FGF1+heparin: heparin, 60 U/kg bolus, given immediately upon reperfusion followed by FGF1, 10 μg/kg i.v. infusion, given for 10 minutes and 12 U/kg/hr i.v. infusion given for 110 minutes of reperfusion, (5) modified FGF1 (FGF1^ΔHBS) group: FGF1^ΔHBS, 10 μg/kg i.v. infusion, given for 10 minutes, or (6) FGF1^ΔHBS+heparin: heparin, 60 U/kg bolus, given immediately at reperfusion followed by FGF1^ΔHBS, 10 μg/kg i.v. infusion, given for 10 minutes and 12 U/kg/hr i.v. infusion for 110 minutes of reperfusion. All rats were subjected to 30 minutes of regional ischemia and 120 minutes of reperfusion. Drugs were administered at the onset of reperfusion via the jugular vein (FIG. 2A). […] A total of ninety-six rats was completed for the I/R study. Sample size for each group ranged from 9-16 depending on the power analysis. A total of thirty-five rats were excluded from the study based on the lack of cyanosis of the heart or typical elevation of the ST segment in the electrocardiogram during ischemia, and death from malignant arrhythmia. For the biodistribution or FGF1 signaling study, rats were randomly divided into six groups as described above (FIG. 2B). Following drug treatment (immediately following 15 minutes of treatment or 105 minutes post-treatment at the point which mimics the length of time of reperfusion), solid organs and blood (see sections “Tissue collection for exogenous FGF1 biodistribution” and “Cardiac preparation to detect the activation of FGF1 downstream molecules”) were collected. A total of 33 rats were used for biodistribution and FGF1 signaling studies, and 3 rats were excluded due to anesthetic overdose. Also, a total of 8 plasma samples were excluded because of hemolysis. For elimination half-life of native FGF1 and FGF1^ΔHBS, 12 rats were randomly divided into two groups and treated intraperitoneally with either FGF1 form as described in the section “Pharmacokinetic evaluation of exogenous FGF1 or FGF1^ΔHBS ”.
The in vivo I/R model was established by ligating and loosening the left anterior CVR-2016-799R1 descending artery (LAD) previously described by our laboratory. In brief, rats were anesthetized with thiobutabarbital sodium salt hydrate, Inactin® hydrate (100 mg/kg, i.p., Sigma-Aldrich), and intubated and artificially ventilated via a rodent respirator (respiratory rate: 75 strokes/minute; tidal volume: 3 mL; Model 683, Harvard, USA). The heart was exposed through a left thoracotomy and pericardiotomy, and a 6-0 silk suture was placed around the left anterior descending (LAD) coronary artery. After equilibration for 15 minutes, hearts were subjected to 30 minutes of ischemia by ligating the LAD via a snare occluder and reperfusion occurred for 120 minute via loosening the snare occluder. The appearance of cyanosis of the heart and significant ST-segment elevation in the electrocardiogram were used to verify successful ligation.
At the end of the ischemia-reperfusion injury study, the LAD was re-occluded with the suture used previously for the establishment of ischemia. 5% Evans blue dye solution was given via the jugular vein to define the area-at-risk (AAR). Then, the heart was arrested in diastole with 1 mL of 15% potassium chloride, and the animal was euthanized with an anesthetic overdose followed by a bilateral pneumothorax for removal of the heart. […]

[3] = system: FGFR1; test: FGFR1 activation (phosphorylation) in left ventricle, immunoblot; parameters: species or system rat; details: in vivo, after 15 minutes of treatment
Procedure: One-half of each snap-frozen heart was powdered and homogenized in protein extraction buffer as previously described by our laboratory. For FGFR1, 150 μg of total protein were loaded onto a 8% SDS-PAGE gel, for ERK1/2 activation, 20 μg of whole cell protein homogenate was loaded onto a 15% SDS-PAGE gel, and for PKCα and PKCδ, […] of whole cell protein homogenate was loaded onto a 10% SDS-PAGE gel and then transferred to nitrocellulose membrane. 0.1% Ponceau S in 5% acetic acid was used to examine the transfer efficiency and loading equality as described previously 43. Membranes were blocked with 5% dry milk and then incubated with primary antibody against phospho-FGFR1 (Y-654, 1:500, Cell Signaling), phospho-ERK1/2 (1:1000, Cell Signaling) or phospho-PKCα (1:500, Santa Cruz) or phospho-PKCδ (1:500, Santa Cruz) followed by incubation with HRP-conjugated secondary goat anti-rabbit antibody (1:3000, Santa Cruz Biotechnology). […]
Construction of his-tagged native and heparin-binding modified rhFGFs as well as their expression and purification is performed as previously described using his-tagged expression vectors and nickel-nitrilotriacetic acid resin columns. […] His-tagged FGFs are detected in solid organs by ELISA (FIG. 14) both for FGF and histidine (data not shown), and immunoprecipitation (IP) followed by immunoblot and in plasma by ELISA as described previously. […]

[4] = as E6 but FGF 10 μg/kg i.v. in the presence of heparin co-administration
[5] = rat, 30 min ischemia/120 min reperfusion, given i.v. at reperfusion alone (FGF 10 μg/kg; heparin 60 U/kg bolus + 12 U/kg/hr)

Molecule	Kd [1] [nM]	infarct size (% infarct, percentage of area-at-risk) [2, 4] [%]	infarct size (% infarct, percentage of area-at-risk) [2, 5] [%]	effect on infarct size / cardioprotection (in words) ([2]; rat, listed as native FGF1)	effect on infarct size (in words) ([2]; rat)	reduction in infarct size compared to saline/vehicle control ([2]; rat)	reduction in infarct size compared to saline/vehicle control ([2]; rat, listed as native FGF1)	FGFR1 activation (phosphorylation, Y-654) in left ventricle (in words) [3]	FGFR (receptor) binding affinity (in words) ([1]; FGFR3c ectodomain)	effect on infarct size / cardioprotection (in words) ([2]; rat)	fold more efficacious in reducing infarct size than native FGF1 ([2]; rat, same dose at reperfusion) [fold]
FGF1: native recombinant human fibroblast growth factor 1	704	42	35	markedly attenuated in the presence of heparin; also recorded: lower in the presence of heparin	significantly reduced infarct size compared to saline	31%	39% and 31%	elevated	–	–	–
B1	432	32	22	–	marked reduction in infarct size compared to the native form of FGF1; also recorded: markedly lowered infarct size compared to FGF1	62% and 60%	–	elevated	retains normal receptor binding affinity	minor, and no statistically significant, inhibition; also recorded: did not reduce the cardioprotective effect; also recorded: not altered in the presence of heparin	~2
